Source: patent US9745384B2, “Peptides useful for modulating histone demethylase function” (The Brigham and Women's Hospital, Inc., priority 2012, dated 2017)

B1: linker region of NPAC: NPAC linker region, residues 152-252 or 152-268 (protein)
chain: SERGSKSPLKRAQEQSPRKRGRPPKDEKDLTIPESSTVKGMMAGPMAAFKWQPTASEPVKDADPHFHHFLLSQTEKPAVCYQAITKKLKICEEETGSTSIQ
modifications: left off: a dimerising Fc or GST
B2: full-length NPAC F217A protein: full-length NPAC protein with F217A mutation (protein, UniProt Q49A26 1-553, looked up, variant F217A)
chain: MAAVSLRLGDLVWGKLGRYPPWPGKIVNPPKDLKKPRGKKCFFVKFFGTEDHAWIKVEQLKPYHAHKEEMIKINKGKRFQQAVDAVEEFLRRAKGKDQTSSHNSSDDKNRRNSSEERSRPNSGDEKRKLSLSEGKVKKNMGEGKKRVSSGSSERGSKSPLKRAQEQSPRKRGRPPKDEKDLTIPESSTVKGMMAGPMAAFKWQPTASEPVKDADPHAHHFLLSQTEKPAVCYQAITKKLKICEEETGSTSIQAADSTAVNGSITPTDKKIGFLGLGLMGSGIVSNLLKMGHTVTVWNRTAEKCDLFIQEGARLGRTPAEVVSTCDITFACVSDPKAAKDLVLGPSGVLQGIRPGKCYVDMSTVDADTVTELAQVIVSRGGRFLEAPVSGNQQLSNDGMLVILAAGDRGLYEDCSSCFQAMGKTSFFLGEVGNAAKMMLIVNMVQGSFMATIAEGLTLAQVTGQSQQTLLDILNQGQLASIFLDQKCQNILQGNFKPDFYLKYIQKDLRLAIALGDAVNHPTPMAAAANEVYKRAKALDQSDNDMSAVYRAYIH
modifications: full-length
notes: full-length NPAC protein with F217A mutation

Experiments:
Assay type in all cases: biochemical
LSD2 [1] = target: T1, LSD2 (Homo sapiens, UniProt Q8NB78); assay: H3K4me2 peptide demethylation assay (MALDI-TOF); conditions: H3K4me2 peptide residues 1-21
T1 construct: 0.15 μM or 1.2 μM purified LSD2 (residues 51-822); His6 (cleaved yes); made in house; host or cells: Sf9 insect cells (baculovirus)
T1 sequence (Q8NB78 51-822): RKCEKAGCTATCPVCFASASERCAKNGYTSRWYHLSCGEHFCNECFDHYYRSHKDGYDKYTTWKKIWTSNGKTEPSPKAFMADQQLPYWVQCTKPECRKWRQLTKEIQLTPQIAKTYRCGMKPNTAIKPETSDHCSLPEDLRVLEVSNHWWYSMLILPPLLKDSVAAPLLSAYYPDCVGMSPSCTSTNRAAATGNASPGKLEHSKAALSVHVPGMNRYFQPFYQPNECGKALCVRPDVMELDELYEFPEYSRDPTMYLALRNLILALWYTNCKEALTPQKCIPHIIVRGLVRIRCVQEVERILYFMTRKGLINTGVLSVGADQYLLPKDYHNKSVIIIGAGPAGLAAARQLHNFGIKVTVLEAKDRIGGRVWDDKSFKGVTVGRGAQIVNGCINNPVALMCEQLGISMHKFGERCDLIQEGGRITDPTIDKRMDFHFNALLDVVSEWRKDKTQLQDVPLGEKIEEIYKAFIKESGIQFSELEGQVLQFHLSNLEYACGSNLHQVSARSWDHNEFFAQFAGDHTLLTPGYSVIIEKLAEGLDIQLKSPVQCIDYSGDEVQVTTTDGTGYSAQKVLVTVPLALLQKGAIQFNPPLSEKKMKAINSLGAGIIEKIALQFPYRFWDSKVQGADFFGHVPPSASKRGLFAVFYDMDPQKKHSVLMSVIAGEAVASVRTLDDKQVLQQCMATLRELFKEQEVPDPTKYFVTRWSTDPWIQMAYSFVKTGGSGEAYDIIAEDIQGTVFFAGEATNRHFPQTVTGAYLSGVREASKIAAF
Protocol: FIGS. 12A-12F depict analysis of LSD2 demethylation activity and mutational analysis. […] Demethylation products were analyzed by MALDI-TOF mass spectrometry. 0.15 μM LSD2 can efficiently demethylate the longer H3K4me2 peptide (1-21), but has no detectable activity on the shorter histone peptide (1-15), demethylation of which requires high concentration (1.2 μM) of LSD2. […] It indicates the importance of histone residue 16-21 to LSD2 enzymatic activity and NPAC cofactor activity, supporting our model that NPAC assists enzyme-substrate interactions by creating a new binding site for H3 L20 in the LSD2-NPAC complex. FIG. 12C depicts LSD2 demethylation and NPAC cofactor activity on longer H3K4me2 peptide (1-44). 2 μg H3K4me2 peptide (1-44) were incubated with 0.8 μg GST-LSD2 (1-822) and 2 μg wild-type or F217A full-length GST-NPAC proteins in 100 μl demethylation buffer (50 mM Tris-HCl pH 8.1, 1 mM NAD^+, 0.1 Unit formaldehyde dehydrogenase) at 30° C. for 2 hours. LSD2 alone can efficiently demethylate di-methyl H3K4 of the long peptides, converting large majority of the substrate to H3K4me1. Wild-type NPAC protein can efficiently stimulate LSD2 demethylation, producing unmethylated H3K4. F217A mutation impairs NPAC cofactor activity as expected, showing little stimulatory effect if any. To compare demethylation efficiency, 1.2 μg bio-H3K4me2 peptide (H3 residue 1-21, equal molar ratio to 2 ug H3K4me2 1-44 peptide in above assays) was demethylated by LSD2 under identical conditions (bottom panel). […] The cofactor activity of wild-type NPAC was readily detected under the same conditions. […] Importantly, the demethylation of nucleosomal H3K4me2 was much more efficient in the presence of wild-type NPAC under same conditions (comparing lane 3 verse 4, and 8 verse 9). It is noted that no obvious cofactor effect of F217A peptide or linker regions was detected in nucleosome and peptide demethylation assays (FIG. 6E and data not shown). FIG. 12F depicts Coomassie staining of NPAC proteins used in histone demethylase assays. FIG. 12F discloses “His6” as SEQ ID NO: 75.
Histone peptides are purchased from Millipore, or custom synthesized. The purity of all peptides are >95% as determined by HPLC and mass spectrometry. In vitro histone demethylase activity assays were performed as described (Shi et al., 2004). Briefly, purified LSD2 and NPAC derived peptides or proteins were incubated with 50 μM H3K4me2 peptides (residues 1-21) in 50 mM Tris-HCl, pH 8.5, 50 mM KCl, 5 mM MgCl2, 5% glycerol at 37° C. for 30 min. The products were desalted through a C18 Ziptip (Millipore) and analyzed on a MALDI-TOF micro MX mass spectrometer (ABI 4700, Applied Biosystems). The laser intensity was kept constant for all of the samples. All MS data were processed using Data Explorer 4.5 (Applied Biosystems). […]

LSD1 = LSD1 (Homo sapiens, UniProt O60341); assay: LSD1-mediated nucleosome demethylation assay; conditions: 2 μg LSD1 with 5 μg cofactor protein
Protocol: FIG. 7A depicts the determination of the threshold dosage of purified LSD2 required for nucleosomal H3K4 demethylation. 2 μg of nucleosomes purified from HeLa were incubated with various amount of His-LSD2 proteins for 2 hours at 30° C. The demethylation reactions were analyzed by immunoblotting using indicated antibodies. […] 2 μg LSD1 in combination with 5 μg purified NPAC or CoREST protein was used for histone demethylase assays. […] Transfected cells are marked by arrows; cells shown significant reduction of H3K4me1 are marked by dotted circles. […] In contrast, coexpression of LSD2 and NPAC induces obvious global decrease of H3K4me1. […] FIG. 7D depicts immunofluorescence analyses of H3K9me2 demethylation in cells coexpressing LSD2 and full-length NPAC.

His-LSD2 = target: T2, His-LSD2 (Homo sapiens, UniProt Q8NB78); assay: Nucleosome demethylation assay (NPAC cofactor activity for LSD2, immunoblot)
T2 construct: typically 0.5 μg full-length His-LSD2; made in house; host or cells: Sf9 insect cells
T2 sequence (Q8NB78 1-822): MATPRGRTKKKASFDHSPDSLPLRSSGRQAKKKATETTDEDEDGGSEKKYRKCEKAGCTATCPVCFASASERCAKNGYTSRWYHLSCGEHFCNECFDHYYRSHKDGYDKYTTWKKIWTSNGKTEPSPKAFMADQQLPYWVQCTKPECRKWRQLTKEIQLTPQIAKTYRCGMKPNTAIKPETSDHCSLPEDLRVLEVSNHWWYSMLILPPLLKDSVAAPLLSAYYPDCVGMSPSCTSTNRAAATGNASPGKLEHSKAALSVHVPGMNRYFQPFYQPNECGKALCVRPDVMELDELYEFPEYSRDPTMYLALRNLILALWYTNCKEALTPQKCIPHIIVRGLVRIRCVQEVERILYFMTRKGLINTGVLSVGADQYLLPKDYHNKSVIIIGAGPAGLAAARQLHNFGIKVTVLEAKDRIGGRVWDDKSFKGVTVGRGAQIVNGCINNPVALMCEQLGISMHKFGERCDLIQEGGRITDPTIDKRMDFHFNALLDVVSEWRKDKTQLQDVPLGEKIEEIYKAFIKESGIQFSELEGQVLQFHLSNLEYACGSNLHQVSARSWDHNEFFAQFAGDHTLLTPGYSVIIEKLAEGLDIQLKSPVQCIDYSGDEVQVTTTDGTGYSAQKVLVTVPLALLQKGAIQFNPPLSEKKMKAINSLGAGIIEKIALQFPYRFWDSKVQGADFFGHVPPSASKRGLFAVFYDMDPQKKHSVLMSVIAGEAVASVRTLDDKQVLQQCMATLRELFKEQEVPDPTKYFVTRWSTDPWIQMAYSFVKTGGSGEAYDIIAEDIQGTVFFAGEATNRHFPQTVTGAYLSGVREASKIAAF
Protocol: For nucleosome demethylation assays, typically 0.5 μg full-length His-LSD2, 1 μg NPAC protein or peptides, and 2 μg nucleosomes purified from HeLa were used, and demethylation efficiency was analyzed by SDS-PAGE electrophoresis and immunoblot using methylation specific anti-histone H3 antibodies as previously described (Shi et al. 2004).

LSD2 [2] = target: T3, LSD2 (Homo sapiens, UniProt Q8NB78); assay: H3K4me2 peptide demethylation assay (MALDI-TOF); parameters: 0.15 μM or 1.2 μM purified LSD2 (residues 51-822); His6 (cleaved yes); made in house; host or cells: Sf9 insect cells (baculovirus); conditions: longer H3K4me2 peptide residues 1-44
T3 sequence (Q8NB78 1-822): T2 sequence (Q8NB78 1-822)
Protocol: FIGS. 12A-12F depict analysis of LSD2 demethylation activity and mutational analysis. […] Demethylation products were analyzed by MALDI-TOF mass spectrometry. 0.15 μM LSD2 can efficiently demethylate the longer H3K4me2 peptide (1-21), but has no detectable activity on the shorter histone peptide (1-15), demethylation of which requires high concentration (1.2 μM) of LSD2. […] It indicates the importance of histone residue 16-21 to LSD2 enzymatic activity and NPAC cofactor activity, supporting our model that NPAC assists enzyme-substrate interactions by creating a new binding site for H3 L20 in the LSD2-NPAC complex. FIG. 12C depicts LSD2 demethylation and NPAC cofactor activity on longer H3K4me2 peptide (1-44). […] The cofactor activity of wild-type NPAC was readily detected under the same conditions. […] It is noted that no obvious cofactor effect of F217A peptide or linker regions was detected in nucleosome and peptide demethylation assays (FIG. 6E and data not shown). […]
Histone peptides are purchased from Millipore, or custom synthesized. The purity of all peptides are >95% as determined by HPLC and mass spectrometry. […] The products were desalted through a C18 Ziptip (Millipore) and analyzed on a MALDI-TOF micro MX mass spectrometer (ABI 4700, Applied Biosystems). […]

Molecule	Cofactor activity: stimulation of LSD2 demethylation of H3K4me2 peptide (LSD2 [1])	Stimulation of LSD1 nucleosome demethylation (LSD1)	Cofactor activity on nucleosomes when more NPAC and LSD2 proteins were used (His-LSD2; more NPAC and LSD2 than threshold assay (FIG. 12E))	Cofactor activity: stimulation of LSD2 demethylation of nucleosomal H3K4me2 (His-LSD2; threshold dosage of His-LSD2, nucleosomes purified from HeLa)	Cofactor activity: stimulation of LSD2 demethylation of H3K4me2 peptide (LSD2 [2])
B1	strong cofactor activity for LSD2	failed to stimulate LSD1 demethylation of nucleosomes			
B2			residual stimulatory activity	didn't detect cofactor activity	very weak or undetectable
